Values belong to the molecule of their own block, whether it stands above or below them.
Key:
[1] = molecular target: wild-type PAI-1 (human) (UniProt P05121)
[2] = molecular target: NBD P9 PAI-1 (UniProt P05121)
[3] = molecular target: wild-type PAI-1 (human) (UniProt P05121); remark: listed apart in the source
[4] = molecular target: wild-type PAI-1 (human) (UniProt P05121); remark: listed apart in the source

Molecule: two-chain urokinase-type plasminogen activator (enzyme)
SI by SDS-PAGE, no Nb, −Vn [1]: 1.1 | SI by SDS-PAGE, with Nb42, +Vn [1]: 1.1 | SI by SDS-PAGE, with Nb42, −Vn [1]: 1.2 | SI by SDS-PAGE, with Nb42 and Nb64, −Vn [1]: 12.4 | SI by SDS-PAGE, with Nb64, +Vn [1]: 10 | SI by SDS-PAGE, with Nb64, −Vn [1]: 27 | klim/Km of RCL insertion, no Nb, −Vn ((μmol/ L)^−1 s^−1) [2]: 11.3 | klim/Km of RCL insertion, with Nb64, −Vn ((μmol/ L)^−1 s^−1) [2]: 14.7 | percent substrate reaction by SDS-PAGE, with Nb64, +Vn [3]: 90% | percent substrate reaction by SDS-PAGE, with Nb64, −Vn [3]: 96%

B1: VHH-2g-42 (VHH)
VHH: QVQLVESGGGLVQPGGRLRLSCAASGFTFRTYAMQWYRQSPGTERELVAAISNIGGVTDYGDSVKGRFTISRDNAKTTVYLEMNSLKPEDTATYYCSAVRLPQRYWGRGTQVTVSS
IC50 of inhibition of PAI-1-wt activity, PAI-1/tPA, −Vn [4]: 87 nM

Second part, the molecule after the results:

SI by SDS-PAGE, with Nb42, +Vn [1]: 1 | SI by SDS-PAGE, with Nb42, −Vn [1]: 1.1 | SI by SDS-PAGE, with Nb42 and Nb64, +Vn [1]: > 30 | SI by SDS-PAGE, with Nb42 and Nb64, −Vn [1]: 16.9 | SI by SDS-PAGE, with Nb64, +Vn [1]: > 30 | SI by SDS-PAGE, with Nb64, −Vn [1]: 15.6 | stoichiometry of inhibition (SI) by SDS-PAGE, no Nb, −Vn [1]: 1.1 | Km ([PA] at half-saturation) of RCL insertion, no Nb, −Vn [2]: 0.22 µM | Km of RCL insertion, with Nb42, −Vn [2]: 1.2 µM | Km of RCL insertion, with Nb42 and Nb64, −Vn [2]: 1.4 µM | Km of RCL insertion, with Nb64, −Vn [2]: 0.17 µM | klim of RCL insertion (stopped-flow NBD fluorescence), no Nb, −Vn [2]: 1.5 s⁻¹ | klim of RCL insertion, with Nb42 and Nb64, −Vn [2]: 5.2 s⁻¹ | klim of RCL insertion, with Nb64, −Vn [2]: 1.4 s⁻¹ | klim/Km of RCL insertion, with Nb42 and Nb64, +Vn ((μmol/ L)^−1 s^−1) [2]: 1.1
Molecule: two-chain tissue-type plasminogen activator (enzyme)

IC50 of inhibition of PAI-1-wt activity, PAI-1/tPA, −Vn [4]: 16 nM | IC50 of inhibition of PAI-1-wt activity, PAI-1/uPA, −Vn [4]: 4.6 nM | IC50 of inhibition of the activity of Vn-bound PAI-1-wt, PAI-1/tPA [4]: 2.8 nM | IC50 of inhibition of the activity of Vn-bound PAI-1-wt, PAI-1/uPA [4]: 2 nM | maximum inhibition of PAI-1-wt activity, PAI-1/uPA, −Vn [4]: 88% | maximum inhibition of the activity of Vn-bound PAI-1-wt, PAI-1/tPA [4]: 93%
B2: VHH-2w-64 (VHH)
VHH: QVQLVESGGGLVQAGGSLRLSCAASGFTFDDYSIAWFRQAPGKEREGVSCISSSDGSAYYADSVKGRFTISSDNAKNTVYLQMNSLKPEDTAVYYCAAVWARVCRNPYDYWGQGTQVTVSS

— PMC8855783
